Results published in the DeepSol protein solubility set.

Test: soluble on expression in E. coli; label from the status in PepcDB or PDB records

| Sequence | soluble on expression in E. coli |
| --- | --- |
| MNRVDLSIFIPDSLTAETGDLKIKTYKVVLIARAASIFGVKRIVIYHDDADGEARFIRDILTYMDTPQYLRRKVFPIMRELKHVGILPPLRTPHHPTGKPVTGEYRQGLTVKRVKKGTLVDIGADKLALCREKLTVNRIMSFRVVRLGKEILIEPDEPEDRYWGYEVLDTRRNLAESLKTVGADVVVATSRNASPITSILDEVKTRMRGAREAAILFGGPYKGLPEIDADIWVNTLPGQCTETVRTEEAVLATLSVFNMLTQIDEKDE | soluble |
| MGSDKIHHHHHHMMQKPKVGQDVPEPSAGGMFQRDAMSPSVAHKPVLELKGNLLSLMVLYLFDSDRNLIEQQFTEKISGAKNFFKNAPIVIDLHALQNTSVPVDLSHLSDLFRKHGLVPVGVRGGNVQQQQAALNLSLGILPDAKPASSRGEPQTEVAVQATRDKVFTQPVRSGQQVAALQGDLVVLAAVNPGAEILAGKNIHVYGPLRGRAIAGVHGYSEARIFCRYFDAELVAVAGQYMLNEDFEDSVRGKPVHIFLENDRLKIQPFEI | not soluble |
| MRNKPFYLLCAFLWLAVSHALAADSTITIRGYVRDNGCSVAAESTNFTVDLMENAAKQFNNIGATTPVVPFRILLSPCGNAVSAVKVGFTGVADSHNANLLALENTVSAASGLGIQLLNEQQNQIPLNAPSSAISWTTLTPGKPNTLNFYARLMATQVPVTAGHINATATFTLEYQ | not soluble |
| MISVCIATYNGEKYLAEQLDSILLQVSEEDELIISDDGSTDHTLEILRTYAANYPQIQLLQGPGQGVIANFAFALTHTKGEVIFLADQDDVWLPNKVTTVTEYFETHPDIQVVISDLKIVDADLQVTNPSYFKFRKVKPGFWRNAIKSGYIGAGMAFRQEMKNVILPIPPEVPMHDMWIGLLAARKKQTGLIKEPLVLYRRHGANVSPIITKTSFQQKLNWRVNLLKALHQRLKEQRLEHHHHHH | soluble |
| MSLDKFQLKGKVALVTGCKRGIGKAMAIGLAEAGADIIGVSASLELEGSSVEQAIRATGRNFKAYQCDFSDRKSLYNFINSVKADYSRIDILVNNAGTILRTPAAEHPDEMWDKVIEVNQNAQFILTRELGKEMVSRGEGKVIFTASLLTFQGGITVPGYAASKGAIGQMTMAFANEWASKGVNVNAIAPGYISTDNTEALRNDPDRSASILSRIPAGRWGEAEDFAGPVVFLASEAAAYMHGSIMLVDGGWMGREGHHHHHH | soluble |
| MGIDKELYKACETALKQCMGVKPGETVLVIADEPEREIGYHLWMKAKELGAEAIYVEILPRKMHGEEPPKPVAEAMKVADVVIAPTSKSITHTLAKKEACERGARVATLPGITREIFVRTMSADYEGMLELTNKIADVLDKGKEVHILTPLGTDLKFSIEGRKARRSTGIYRNPGECGNLPGAEAYIAPLEGTANGRVVIDGSMAGIGVLKEPIEIIVKDGFAEDIRGGEEAEKLREILSRYGKEARNIAEFGVGTNPKARISGNILEDEKVFGTVHIALGSNYDFGGKVKAPVHLDGIIKEPTVLIDGKYLFKDGNLVI | soluble |
| MGEAPAVLVDHPENGHSNGVCVKSEPENTEITVDVGDRIFLIGGTHERNNFSIGVQIYDKISNNWFSPIVLGTGPKPSKGYSAFVLEQGRILVIKKGSPRNDSIWFLEVDSPYVREQKKLLRKEVVAWSKGVRGNAEKPIVISGPSGVGKGTLISMLMKEFPSMFGFSVSHTTRSPRSMEMDGVHYHFADKKVMEKEIKDGKFLEFASVHGNLYGTSIESVEAVTDSGKRCILDIDVQGARSVRASSLDAIFIFVCPPSMKELEDRLRARGTETEEQIQKRLRNAEAEIKEGISSGIFGLILYNDNLEECYKKLKNLLGLDGLAHVNGVEIEGINLPIEYAVSKMEDKIIIQETGKETRNKIVVDISSLNGGAPGRTRGILVDAIKF | soluble |
| MLYDLAKQRKTVRKFKEEKPSIEKLMYCLKVANEAPSGMNAQPWRFLVVKDEETKRQIRETCEKAEKDFYENVRGKLKEWLNENSFNWKKPFLEEAPYLLLVFSKKDAPYSRESVWLAIGYLLLALEEQGLGTVPYTPPNPNELTKIVNTPSDLRFEVILPVGYPDDPKPKYPREEMKVSFNHF | not soluble |
| MSLKKFYHLVVRILSKMITPQVIDKPHIVFMMTFPEDIKPIIKALNNSSYQKTVLTTPKQAPYLSELSDDVDVIEMTNRTLVKQIKALKSAQMIIIDNYYLLLGGYNKTSNQHIVQTWHASGALKNFGLTDHQVDVSDKAMVQQYRKVYQATDFYLVGCEQMSQCFKQSLGATEEQMLYFGLPRINKYYTADRATVKAELKDKYGITNKLVLYVPTYREDKADNRAIDKAYFEKCLPGYTLINKLHPSIEDSDIDDVSSIDTSTLMLMSDIIISDYSSLPIEASLLDIPTIFYVYDEGTYDQVRGLNQFYKAIPDSYKVYTEEDLIMTIQEKEHLLSPLFKDWHKYNTDKSLHQLTEYIDKMVTKEGGSHHHHHH | soluble |
| LKMTKVMVSEAGASVYSASELAAKEFPDLDVSIRGAVSIARRLQDPLAELVKIDPKSIGVGQYQHDVSQLKLARGLDAVVEDCVNAVGVDVNTASVALLARISGLNTTLAQNIVAHRDENGAFKTRAALKKVSRLGEKTFEQAAGFLRVMTGDNPLDSSAVHPEAYPLVQRIAAETDRDIRSLIGDASFLKRLDPKKFTDETF | not soluble |
| MSGSHHHHHHSSGIEGRGRLQTRQDVLYLYNWTYYTPTSLIKKFEQQYNVQVVYDDYASNEDMFAKLSIGASGYDLVVPSGDFVSIMKRKHLLEKIDLSKIPNVQFIKESVRARIAYDPKMEYSVPYYLGAAGIAVNKKAVPSYARTWSIFSRKDLAYRMSMMDDMREVMGAALASLGYNVNTKNEQELAQAAILVTDHWKPNLVKFDSDGYAKSFASGDFVVAHGFAEAFFAETPEAMHEHIDFFIPQDVASPVYVDSFCIPKGARNRDLAHAFINFFLEPAHYAEFLDTFGFPSTIHREAAAYQKKTPYYSEHDLERGTLKTDVGAAIEHYNAHWNAVRFR | soluble |
| MGSDKIHHHHHHMPKITKIEVQKKNKERFNLFLDEQFEMGIDIDTLVKFNLKKGQQLEAADMAEIQKYDHYRIGLNKAIQYLSYKKRTEKEVIQYLQKEEISEQAISEVIEYCYREKLIDHQDYAESLKNTMIRTTDKGPKIYQQKLYQLGIEPNIIEIFTELYREQQELDDIIQIAEKISKTKKGPQNKVKEKVMQSLIQKGFEMETIHAVLNEMDFTQDEAVLDDLLQRDLEKIYNKNRKKYTQQKLISKTIEGLMRKGYKYDKIKAKLEESGIADGTEEIE | not soluble |
| MGSDKIHHHHHHMKRTPGPNKRGSKRMQPNLKFSRGEFADRLAKTRRAMEARGVDLLIVSDPSNMAWLTGYDGWSFYVHQAVIVPPSGEPVWYGRGQDANGAKRTAYLAQNNIVGYADHYVQSTERHPMDFLSSVLSDRGWGKLTIGVEMDNYWFSAAAFASLQKHLPNARFVDATALVNWQRAVKSPTEIDYMRKAARIVEAMHQRIFDRIEIGMRKCDLVAEIYDAGTRGVDGIGGDYPAIVPLLPSGVDASAPHLTWDDQPMKRGEGTFFEIAGCYNRYHCPLSRTVFLGKPTQEFLDAEKATLEGMEAGLAAAKPGNACEDIANAFFAVLKKYGIVKDNRTGYSIGLSYPPDWGERTMSLRPGDHTELKPGMTFHFMTGLWLETMGLEITESILITETGVECLANVPRKLVVKN | not soluble |
| MGSDKIHHHHHHMNHIMLGTTNISIFPLVFGTLPLGPLQAGLSPSEGGRLIRHALEHGVTMIDTATLYDTYPHVREGIAGWQGDVTIVTKTHANDGPTARAHVEKGLRELGRERLDIVHLHGARVADPFSDRADVLAELLRMKDEGKIGHVGLSSHYICAILKAADHPEIEVVHPLINRTGMGILDGSAAEMAEAIAACARAGKGVYAMKALAGGNLIAEARASLAYVRGLEGVHGVAIGMLSEAEVEANIALFSGNAPEDEVWRQLESRRRKLRIMENFCKGCGGCVEACASGALTVVNGKAVLDEAACILCGYCAASCPEFIIRVV | not soluble |
| MSYRESRQRLERLTESPSHLTIWRRMQELSYESKFEYESFVSADGTKLHAKRSKKLDVKVIAGKSVIVGINESHREMRGEYDVKATVVGDADRDLSCF | not soluble |
| MSLQTKQKGLQEVLIAAIKRATNEKTLVSFVKQIDWVDPLLFYAAGKRISFENRCYFADPAQHVIFAGIGSVFTIANSSHKRFQTARDEWEKVKENAFVQRDEYEFGTGPLLFGGFSFDPEKEKTDLWKEFKDTTFSLPAFLLTVKNEKAWLTMNTFVSATDCAETLSNEMISLEEKILGESRCALNGSKLTVISKVEVDPKGWMKAIEKVQDEMKQGNVQKVVLARELKVEMNHSIDSALVLEALRIGQPDCYVFSFDYKGACFLGATPERLIRKEDEKFTSMCLAGSIGHGHSIEESKRNSNALLHDEKNLAEHGYVVNMIRSVLNEHCEYVNIPESPGLLTTKNLIHLYTPVEAKGDASLLTMVEELHPTPALGGTPRLEAMKLIRDVELLDRGLYGAPIGWIDDEGNGEFAVALRCGLLNGEKASLFAGCGIVIDSIPQLEYEETSLKFRPMLGALEELMKEGHHHHHH | soluble |
| MAHHHHHHMSYYDKSDKIGYDDTDKELNEELEEMLARTPPHIQRHLQHRIHDGILQRMKEDTARRCWEFIKKYETCVNSVKPYDLTDCRPHRDALNDCAHEVNREQIYQKYRMMYLRGELLRLHESRLGQKMETMKVRAPDSIRGWKPDYAPKYAEMMSDIGLNLGPEAADERKLS | not soluble |
| MGSDKIHHHHHHMTKHFSPYDADKPLFATCSCGQHASEEDHLKAGMSTLEHQETGRSTEEEFSNDFIEAALVKAILPHERQRRDFLRAVGKGAAMAAISAVFPLGSLKAMAMEKGSIEKSTLKVGFIPITCAAPLILAEPMGFFKEQGLNVELNKTAGWALVRDKIMNHEYDASQFLAPMPLAMTLGAGSSAQTVNVAAIQNVNGQAIVLALKHKSNRDPKNWKGFKFAIPFEFSMHNFLLRYYLAEAGIDPDRDVQLRVVPPAEMLANLRAGNIDGFLGPDPFSQRAVFEGVGFIHILSQDIWNGHPCCSFGASASFIQQNPNTFAALYRAFLKSSAFAHDKNNRKEVAAIISKPKYLNQPEIIVNQVITGRYADGLGNIVNAPGRVGFEAIPWEGMALWMLTQMKRWGYLKGDVSYQAIAEKVFMMTDAKKAMQGLGLEVPQSSGKIVVMGKAFDPLKPQSYVDSFGIKR | not soluble |
| MGSDKIHHHHHHMAAALDGIRVLDLSRVLAGPWASQALADLGAEVIKIERPGAGDDTRSWGPPFLKDEDGRETTDAAYFLAANRGKKSLTVDITKAEGQDLVRALAARSHVVIENFKLGGLAKYGLDWPSLRAVNPALVYCSITGFGQTGPYAPRAGYDAMIQAMSGLMSVTGEPDGVAGGGPMKVGVAVTDILTGLYAAFGILAALRHAEATGEGQHIDLALMDTAVACMANQAANALVGERVPGRLGTAHPNIVPYQAFATQDGHLMLAVGNDGQFARLCAIGQRPDLPLDPRFARNRDRVAHRAALLAEIIPMMASRSTDAWIAALESAGVPCGPINTLDRVFADPQVIARGLRVDGTHAEAGTVPMVRNPLLLSATPPTHTAGPPTLGQHTDGVLSDVLGLTAEDITTLRQKAIV | not soluble |
| MGSSHHHHHHGKTIFVIVPTNEEQVAFLEALAKQDELNFDWQNPPTEPGQPVVILIPSDMVEWFLEMLKAKGIPFTVYVEEGGSENLYFQGGGGGGVRYVQRPWFSPLGFMASSPTAYAPMMTCIALALIFPFRYQISEYFERQRDGVHVELRRKAVKYYAEMERMHRRQALVNLESIQDDNAPHRLSAVLSVESIQAGHLDQEYNYWYAHERDAIRAEKLMMEIRELKAKMPADSA | not soluble |
| MGGGHHEPFKIPNYSIYSNFRDFPQLAQHEKRLAQIGLKDPWIRNYVYLYDRKYPHVVGQWAHFKKLILPGWKAGVAFTAALIFVEEAYQYKTHGTTSWDGHH | not soluble |
| MSLITCKFKNLGNLHAGGCGYIPLSSTREERVKNGSRVVSTALLSSYHKGIAFVIFPSHHHTPTRPPSPKPSGSGGYLLNLRRRDPPQAFLSGCPPLPPRGSVLLGCTPPRTQFFVFHVVSYPLVLQKLLQTRDQKSIGSNSSCDTSEMSDCWQVTLSI | not soluble |
